Data set [1] deals with PI(4)P lipid vesicles (PolyPIPosomes). The data set can be described thus: Cosedimentation of myosin-1 tails with PI(4)P vesicles. Particulars: 500 nM tail; vesicles with 5% phosphoinositide; read-out: KD, tail binding to PI(4)P. As for the experimental part: (§1) Phospholipid binding assays were performed using commercially available lipid vesicles (PolyPIPosomes™, 200 nm diameter; Echelon Biosciences) composed of 95% PE + PC and 5% of the phosphoinositide of interest. Accessible phospholipid concentration was calculated as half of the total phospholipid content. Myosin-1 tail (500 nM) in co-sedimentation buffer (10 mM Tris, pH 7.5, 100 mM NaCl, 1 mM EGTA) was incubated with increasing concentrations of PolyPIPosomes™ (accessible PIP range: 10 nM to 10 mM) at room temperature for 30 min, followed by centrifugation at 25,000 g to separate bound and unbound fractions. Bound myosin-1 tail was quantified either by measuring fluorescence intensity of the supernatant (Jasco FP-6500 fluorimeter, excitation 514 nm) or by western blot of pellet and supernatant fractions using anti-GST antibody as indicated in the experiments. […] Microtubule binding assays employed 100 mM PIPES (pH 6.8), 2 mM MgCl2, 1 mM EGTA, 20 µM paclitaxel, and 1 mM GTP. […] Fluorescence intensities of pellet and supernatant fractions were quantified as described above. […]
(§2) Fig. 1 Myosin-1 tail binding to phosphoinositides. a Representative fluorescence spectra of supernatants from co-sedimentation assays with YFP-tagged myosin-1D tail and increasing concentrations of lipid vesicles containing PI(3,5)P₂. […]

Data set [2] concerns the target PC, PS lipid vesicles. In words: Cosedimentation of myosin-1 tails with lipid vesicles devoid of phosphoinositides. Particulars: 500 nM tail; vesicles without phosphoinositide; read-out: KD, tail binding to PC, PS. As for the experimental part: as §1, §2
Data set [3] deals with PI (unphosphorylated phosphatidylinositol) lipid vesicles. In words: Fluorescence-based cosedimentation of myosin-1 tails with lipid vesicles containing PI. As to conditions: 500 nM tail, accessible phospholipid, read-out: KD, tail binding to PI. As for the experimental part:
as §1, §2

Data set [4] has as its system isolated nuclei from Dictyostelium cells. In words: Binding of YFP-tagged myosin tail constructs to isolated nuclei, confocal microscopy. The arrangement: species or system Dictyostelium discoideum. As to conditions: 1 µM tail construct, 30 min.
For data set [5], the system named is microtubules and F-actin. In words: TIRF microscopy of microtubule/F-actin cross-linking by myosin-1 tails. The class given is biochemical. Particulars: 1 µM tail construct.
The subject of data set [6] is PI(3,4,5)P3 lipid vesicles. In words: Competitive binding of myosin-1 tails to PI(3,4,5)P3 vesicles (western blot of supernatant and pellet). As for the experimental part: Phospholipid binding assays were performed using commercially available lipid vesicles (PolyPIPosomes™, 200 nm diameter; Echelon Biosciences) composed of 95% PE + PC and 5% of the phosphoinositide of interest. Accessible phospholipid concentration was calculated as half of the total phospholipid content. Myosin-1 tail (500 nM) in co-sedimentation buffer (10 mM Tris, pH 7.5, 100 mM NaCl, 1 mM EGTA) was incubated with increasing concentrations of PolyPIPosomes™ (accessible PIP range: 10 nM to 10 mM) at room temperature for 30 min, followed by centrifugation at 25,000 g to separate bound and unbound fractions. Bound myosin-1 tail was quantified either by measuring fluorescence intensity of the supernatant (Jasco FP-6500 fluorimeter, excitation 514 nm) or by western blot of pellet and supernatant fractions using anti-GST antibody as indicated in the experiments. […] Microtubule binding assays employed 100 mM PIPES (pH 6.8), 2 mM MgCl2, 1 mM EGTA, 20 µM paclitaxel, and 1 mM GTP. […] Fluorescence intensities of pellet and supernatant fractions were quantified as described above.
To gain deeper insight into the binding specificity of the myosin tails, we conducted competition experiments in which two tail constructs were simultaneously present in the PIP-binding assay, allowing us to assess their ability to compete for binding to the same lipid species. We performed these experiments using PI(3,4,5)P₃ (PIP₃) as an exemplary lipid, first in the absence and then in the presence of a second tail isoform. Two tail pairs were tested: those of myosin-1B and myosin-1D, and those of myosin-1C and myosin-1D (Figs. 3a, c). […] These findings establish myosin-1D as the dominant binder of PIP₃, capable of outcompeting myosin-1B and myosin-1C for membrane association.
Fig. 3 Competitive binding of myosin-1 tails to PI(3,4,5)P₃. a, c Western blots of supernatant and pellet fractions from lipid vesicles containing PI(3,4,5)P₃ following incubation with 2 µM myosin-1B tail (~ 70 kDa) (a) or myosin-1C tail (~ 70 kDa) (c) in competition with myosin-1D tail (~ 100 kDa). The total accessible PI(3,4,5)P₃ concentration was maintained at 2 µM. b, d Dashed boxes indicate the fraction of myosin-1 tails bound to lipid vesicles in the absence of the other myosin isoform. Orange bars denote the fraction of bound myosin in the presence of the competing myosin TEXT PRINTED IN THE PICTURE: (b) myosin-1D: % myosin bound to PI(3,4,5)P3: 90%; % myosin bound to PI(3,4,5)P3: 86% | (b) myosin-1B: % myosin bound to PI(3,4,5)P3: 71%; % myosin bound to PI(3,4,5)P3: 32% | (d) myosin-1D: % myosin bound to PI(3,4,5)P3: 94%; % myosin bound to PI(3,4,5)P3: 85% | (d) myosin-1C: % myosin bound to PI(3,4,5)P3: 32%; % myosin bound to PI(3,4,5)P3: 9%
(In western blotting, separated proteins are transferred to a membrane and probed.)

For data set [7], the target named is PI(3,4)P2 lipid vesicles (PolyPIPosomes). In words: Cosedimentation of myosin-1 tails with PI(3,4)P2 vesicles. As to conditions: 500 nM tail; vesicles with 5% phosphoinositide; read-out: KD, tail binding to PI(3,4)P2. As for the experimental part: as §1, §2
For data set [8], the target named is PI(3)P lipid vesicles (PolyPIPosomes). The data set can be described thus: Cosedimentation of myosin-1 tails with PI(3)P vesicles. Particulars: 500 nM tail; vesicles with 5% phosphoinositide; read-out: KD, tail binding to PI(3)P. As for the experimental part:
as §1, §2

Data set [9] addresses PI(3,4,5)P3 lipid vesicles (PolyPIPosomes). In words: Cosedimentation of myosin-1 tails with PI(3,4,5)P3 vesicles. Particulars: 500 nM tail; vesicles with 5% phosphoinositide; read-out: KD, tail binding to PI(3,4,5)P3. As for the experimental part: as §1, §2
Data set [10] concerns the target PI(5)P lipid vesicles (PolyPIPosomes). The data set can be described thus: Cosedimentation of myosin-1 tails with PI(5)P vesicles. As to conditions: 500 nM tail; vesicles with 5% phosphoinositide; read-out: KD, tail binding to PI(5)P. As for the experimental part: as §1, §2
Data set [11] has as its target PI(3,5)P2 lipid vesicles (PolyPIPosomes). The data set can be described thus: Cosedimentation of myosin-1 tails with PI(3,5)P2 vesicles (fluorescence or immunoblot detection). As to conditions: 500 nM tail; vesicles with 5% phosphoinositide; read-out: KD, tail binding to PI(3,5)P2. As for the experimental part:
Phospholipid binding assays were performed using commercially available lipid vesicles (PolyPIPosomes™, 200 nm diameter; Echelon Biosciences) composed of 95% PE + PC and 5% of the phosphoinositide of interest. Accessible phospholipid concentration was calculated as half of the total phospholipid content. Myosin-1 tail (500 nM) in co-sedimentation buffer (10 mM Tris, pH 7.5, 100 mM NaCl, 1 mM EGTA) was incubated with increasing concentrations of PolyPIPosomes™ (accessible PIP range: 10 nM to 10 mM) at room temperature for 30 min, followed by centrifugation at 25,000 g to separate bound and unbound fractions. Bound myosin-1 tail was quantified either by measuring fluorescence intensity of the supernatant (Jasco FP-6500 fluorimeter, excitation 514 nm) or by western blot of pellet and supernatant fractions using anti-GST antibody as indicated in the experiments. […] Fluorescence intensities of pellet and supernatant fractions were quantified as described above. […]
as §2
Supplementary Fig. S2. Lipid dot blot assays and comparisons between fluorescence-based detection and immunoblot detection of myosin-1-PI(3,5)P2 interactions. […]

In data set [12] the target is PI(4,5)P2 lipid vesicles (PolyPIPosomes). In words: Cosedimentation of myosin-1 tails with PI(4,5)P2 vesicles. As to conditions: 500 nM tail; vesicles with 5% phosphoinositide; read-out: KD, tail binding to PI(4,5)P2. As for the experimental part:
as §1, §2

Data set [13] relates to microtubules. On the set-up: method as in PMID 21712373. Particulars: read-out: Inhibition of the cold-induced depolymerization of microtubules IC50; cited from earlier work.
In data set [14] the target is microtubules. The arrangement: method as in Rump et al., 2010. Particulars: ref Rump et al., 2010; read-out: KD, tail binding to microtubules; cited from earlier work.
Setting [15] is: in presence of competing myosin-1D tail, 2 µM each, PI(3,4,5)P3 2 µM.
[16] abbreviates: single tail 2 µM, absence of other isoform, accessible PI(3,4,5)P3 2 µM.

Entries after “also recorded” stand apart in the source; their conditions may differ. A value given as a limit tells only on which side of the number the result lay.

B1: Myosin-1B-tail: Recombinant GST-/YFP-tagged tail construct of Dictyostelium discoideum myosin-1B (amino acids 717–1111) (protein)
chain: QRAQIAHMFKDKKERQRNSIDRKFTSDYIDFENQFGLQEAMQNAHKKERVVFADTVIKIDRRAKQKNYEMVLTDQALYFVEKSIKKKVLVHTLIRRVGLREIKGVSISTLSDNVIVFHLPEHDQVIENDKKTEIIIVLVEYFKAIGGGSLNVQFSDRINYTLKKGEQKEISFQKSEQCPTLVVKKGGKGLIGTIASGLPSSTDSTPKNYNPNSMSQASSRPAPQQSAGRGRGMPQGAGQPQPQQPQQQQRPMPQPQQGGGARPMPQPQQGGGARPMGAPQQGGAPQQGAGRQLPQPTQQGGAPGGRGAPMGRGAPGGGPAGAGGRPLPTVAKPAPQPSRPTAKALYDYDASSTDELSFKEGDIIFIVQKDNGGWTQGELKSGQKGWAPTNYLQYN
modifications: left off: GST, N-terminal, state not stated | YFP, C-terminal, kept
The term Kd denotes the free concentration of one partner at which half of the binding sites on the other are occupied at equilibrium, for simple one-to-one binding. On to B1, for which the Kd in [1] was 2.3 ± 0.4 µM; in data set [2] it was more than 100 µM; in data set [3], 38.2 ± 4 µM; in data set [7], 2.2 ± 0.4 µM; in [8], 8.3 ± 1 µM; in data set [9], 1.1 ± 0.2 µM. Besides, in data set [10], the Kd stood at 7.7 ± 0.6 µM. The “association of YFP-tagged tail construct with isolated nuclei” value in data set [4] is on record as “do not bind to nuclei; also recorded: did not associate with the nuclei”. In data set [5], the “cross-linking of microtubules and actin filaments” value was “not observed”. The “% myosin bound to PI(3,4,5)P3” value in data set [6] (setting [15]) was 32%; in [6] (setting [16]), approximately 71%.

B2: Myosin-1C-tail: Recombinant GST-/YFP-tagged tail construct of Dictyostelium discoideum myosin-1C (protein)
chain: RYWHDMASRIKNAYRNYKAFQFECSNRIKNAFRNYKLYRQRCAQTIQGYFRAWKQASPFFDLRMQNEQLFQGRKERNRFSMISVRKYFGDYLDVRSQSYFLDAMAEGRNEDVIFSSKSQVMVHPILSANKLSPRFLIVTKQAIYLIKLKQKKNLATYLLDRRVPLAEVTSFSLSSLADNLLVIHTSTQFDVAVTTEFKTELVALINKQKGTTLAVNFGQSIQYFKKKGSNNTVTFLKDEMHKEIFLKKNQFHIASGLPASTTVAKVRKNPSQVSTPSKPIAKPVAKPMVAKPSGGSVIMKKPAPAAPPSGPPVMKKPAPTAPGGAPMMKKPAPAPGGAPMMKKPAPVPGGPAPGGSAIMKPAGGVSKPLPSPTGAPMMKKPAPTAPGGPAPAGAPTPMMKKPAGQPMMKPIAKPQPTPMKKPAAPPPQQYIALYEYDAMQPDELTFKENDVINLIKKVDADWWQGELVRTKQIGMLPSNYVQQI
modifications: left off: GST, end not stated, state not stated | YFP, end not stated, kept
notes: Recombinant GST-/YFP-tagged tail construct of Dictyostelium discoideum myosin-1C
As a reminder, the IC50 is the concentration needed to halve the response being measured. Take B2: the Kd was 0.4 ± 0.1 µM in [1]; 31.5 ± 2.7 µM in data set [2]; 0.6 ± 0.1 µM in [11]; 1.1 ± 0.2 µM in data set [12]; 5.4 ± 0.8 µM in data set [3]; 0.08 ± 0.05 µM in data set [14]. Further, the values for the Kd in data set [8], in [9] and in data set [10] were 4 ± 0.3 µM, 2.5 ± 0.3 µM and 0.5 ± 0.1 µM, respectively. In addition, in data set [4], the “association of YFP-tagged tail construct with isolated nuclei” value is recorded as “do not bind to nuclei; also recorded: did not associate with the nuclei”. In addition, the “cross-linking of microtubules and actin filaments” value in data set [5] is on record as “cross-linking activity”. In addition, the results for the “% myosin bound to PI(3,4,5)P3” value in data set [6] (setting [15]) and in [6] (setting [16]) were 9% and approximately 32%, respectively. Moreover, the IC50 in data set [13] is approximately 0.002 µM.
